From PMC4022651, “Substitutional Analysis of the C-Terminal Domain of AbrB Revealed Its Essential Role in DNA-Binding Activity”

What was measured:
AbrB D62A (B. subtilis) = assay: SEC; analytical gel filtration (FPLC) on Superdex 75 5/150 GL; running buffer condition I: 50 mM HEPES pH 7.5, 300 mM NaCl, 2 mM β-mercaptoethanol, no glycerol; 100 µl protein applied; 0.2 ml/min; polymeric forms as % of the areas under the curve of all protein peaks
AbrB E77A (B. subtilis) [1] = assay: as above
AbrB E77A (B. subtilis) [2] = assay: SEC; analytical gel filtration (FPLC) on Superdex 75 5/150 GL; running buffer condition II: 50 mM HEPES pH 7.5, 300 mM NaCl, 2 mM β-mercaptoethanol with 10% glycerol; 60 µl (100 µg) protein applied; 0.2 ml/min; polymeric forms as % of the areas under the curve of all protein peaks
AbrB E80A (B. subtilis) [3] = assay: SEC; analytical gel filtration (FPLC) on Superdex 75 5/150 GL; running buffer condition I: 50 mM HEPES pH 7.5, 300 mM NaCl, 2 mM β-mercaptoethanol, no glycerol; 100 µl protein applied; 0.2 ml/min; polymeric forms as % of the areas under the curve of all protein peaks
AbrB E80A (B. subtilis) [4] = assay: SEC; analytical gel filtration (FPLC) on Superdex 75 5/150 GL; running buffer condition II: 50 mM HEPES pH 7.5, 300 mM NaCl, 2 mM β-mercaptoethanol with 10% glycerol; 60 µl (100 µg) protein applied; 0.2 ml/min; polymeric forms as % of the areas under the curve of all protein peaks
AbrB E85A (B. subtilis) = assay: SEC; analytical gel filtration (FPLC) on Superdex 75 5/150 GL; running buffer condition I: 50 mM HEPES pH 7.5, 300 mM NaCl, 2 mM β-mercaptoethanol, no glycerol; 100 µl protein applied; 0.2 ml/min; polymeric forms as % of the areas under the curve of all protein peaks
AbrB K71A (B. subtilis) [5] = assay: as above
AbrB K71A (B. subtilis) [6] = assay: SEC; analytical gel filtration (FPLC) on Superdex 75 5/150 GL; running buffer condition II: 50 mM HEPES pH 7.5, 300 mM NaCl, 2 mM β-mercaptoethanol with 10% glycerol; 60 µl (100 µg) protein applied; 0.2 ml/min; polymeric forms as % of the areas under the curve of all protein peaks
AbrB K76A (B. subtilis) = assay: SEC; analytical gel filtration (FPLC) on Superdex 75 5/150 GL; running buffer condition I: 50 mM HEPES pH 7.5, 300 mM NaCl, 2 mM β-mercaptoethanol, no glycerol; 100 µl protein applied; 0.2 ml/min; polymeric forms as % of the areas under the curve of all protein peaks
AbrB K94A (B. subtilis) = assay: as above
AbrB K94I (B. subtilis) [7] = assay: as above
AbrB K94I (B. subtilis) [8] = assay: SEC; analytical gel filtration (FPLC) on Superdex 75 5/150 GL; running buffer condition II: 50 mM HEPES pH 7.5, 300 mM NaCl, 2 mM β-mercaptoethanol with 10% glycerol; 60 µl (100 µg) protein applied; 0.2 ml/min; polymeric forms as % of the areas under the curve of all protein peaks
AbrB N88A (B. subtilis) = assay: SEC; analytical gel filtration (FPLC) on Superdex 75 5/150 GL; running buffer condition I: 50 mM HEPES pH 7.5, 300 mM NaCl, 2 mM β-mercaptoethanol, no glycerol; 100 µl protein applied; 0.2 ml/min; polymeric forms as % of the areas under the curve of all protein peaks
AbrB N88D (B. subtilis) = assay: as above
AbrB Q55A (B. subtilis) = assay: as above
AbrB Q55E (B. subtilis) [9] = assay: as above
AbrB Q55E (B. subtilis) [10] = assay: SEC; analytical gel filtration (FPLC) on Superdex 75 5/150 GL; running buffer condition II: 50 mM HEPES pH 7.5, 300 mM NaCl, 2 mM β-mercaptoethanol with 10% glycerol; 60 µl (100 µg) protein applied; 0.2 ml/min; polymeric forms as % of the areas under the curve of all protein peaks
AbrB Q81A (B. subtilis) = assay: SEC; analytical gel filtration (FPLC) on Superdex 75 5/150 GL; running buffer condition I: 50 mM HEPES pH 7.5, 300 mM NaCl, 2 mM β-mercaptoethanol, no glycerol; 100 µl protein applied; 0.2 ml/min; polymeric forms as % of the areas under the curve of all protein peaks
AbrB Q87A (B. subtilis) = assay: as above
AbrB Q89A (B. subtilis) = assay: as above
AbrBQ81E (B. subtilis) [11] = assay: as above
AbrBQ81E (B. subtilis) [12] = assay: SEC; analytical gel filtration (FPLC) on Superdex 75 5/150 GL; running buffer condition II: 50 mM HEPES pH 7.5, 300 mM NaCl, 2 mM β-mercaptoethanol with 10% glycerol; 60 µl (100 µg) protein applied; 0.2 ml/min; polymeric forms as % of the areas under the curve of all protein peaks
[13] = target: AbrBQ81K, identical with the AbrB of B. amyloliquefaciens FZB45 (B. subtilis (with Q81K: B. amyloliquefaciens FZB45)); assay: SEC; analytical gel filtration (FPLC) on Superdex 75 5/150 GL; running buffer condition I: 50 mM HEPES pH 7.5, 300 mM NaCl, 2 mM β-mercaptoethanol, no glycerol; 100 µl protein applied; 0.2 ml/min; polymeric forms as % of the areas under the curve of all protein peaks
AbrBR15A (B. subtilis) [14] = assay: as above
AbrBR15A (B. subtilis) [15] = assay: SEC; analytical gel filtration (FPLC) on Superdex 75 5/150 GL; running buffer condition II: 50 mM HEPES pH 7.5, 300 mM NaCl, 2 mM β-mercaptoethanol with 10% glycerol; 60 µl (100 µg) protein applied; 0.2 ml/min; polymeric forms as % of the areas under the curve of all protein peaks
[16] = target: wild-type AbrB of B. subtilis 168 (His6-AbrB) (B. subtilis); assay: SEC; analytical gel filtration (FPLC) on Superdex 75 5/150 GL; running buffer condition I: 50 mM HEPES pH 7.5, 300 mM NaCl, 2 mM β-mercaptoethanol, no glycerol; 100 µl protein applied; 0.2 ml/min; polymeric forms as % of the areas under the curve of all protein peaks
[17] = target: wild-type AbrB of B. subtilis 168 (His6-AbrB) (B. subtilis); assay: SEC; analytical gel filtration (FPLC) on Superdex 75 5/150 GL; running buffer condition II: 50 mM HEPES pH 7.5, 300 mM NaCl, 2 mM β-mercaptoethanol with 10% glycerol; 60 µl (100 µg) protein applied; 0.2 ml/min; polymeric forms as % of the areas under the curve of all protein peaks

AbrB D62A (natural protein)
% of the protein (AUC) in the form with n 4.1 (AbrB D62A (B. subtilis)): 94%
% of the protein (AUC) in the form with n 8.2 (AbrB D62A (B. subtilis)): 6%

AbrB E77A (natural protein)
% of the protein (AUC) in the form with n 4.1 (AbrB E77A (B. subtilis) [1]): 83%
% of the protein (AUC) in the form with n 8.2 (AbrB E77A (B. subtilis) [1]): 17%
% of the protein (AUC) in the form with n 4.7 (AbrB E77A (B. subtilis) [2]): 94%
% of the protein (AUC) in the form with n 55.5 (AbrB E77A (B. subtilis) [2]): 6%

AbrB E80A (natural protein)
% of the protein (AUC) in the form with n 3.9 (AbrB E80A (B. subtilis) [3]): 78%
% of the protein (AUC) in the form with n 8.2 (AbrB E80A (B. subtilis) [3]): 22%
% of the protein (AUC) in the form with n 4.5 (AbrB E80A (B. subtilis) [4]): 90%
% of the protein (AUC) in the form with n 56.3 (AbrB E80A (B. subtilis) [4]): 10%

AbrB E85A (natural protein)
% of the protein (AUC) in the form with n 4.0 (AbrB E85A (B. subtilis)): 98%
% of the protein (AUC) in the form with n 8.2 (AbrB E85A (B. subtilis)): 2%

AbrB K71A (natural protein)
% of the protein (AUC) in the form with n 4.3 (AbrB K71A (B. subtilis) [5]): 86%
% of the protein (AUC) in the form with n 8.5 (AbrB K71A (B. subtilis) [5]): 14%
% of the protein (AUC) in the form with n 3.9 (AbrB K71A (B. subtilis) [6]): > 95%
stoichiometry N (AbrB K71A (B. subtilis) [6]): 3.9

AbrB K76A (natural protein)
% of the protein (AUC) in the form with n 4.0 (AbrB K76A (B. subtilis)): > 95%
stoichiometry N (AbrB K76A (B. subtilis)): 4

AbrB K94A (natural protein)
% of the protein (AUC) in the form with n 4.1 (AbrB K94A (B. subtilis)): 93%
% of the protein (AUC) in the form with n 8.2 (AbrB K94A (B. subtilis)): 7%

AbrB K94I (natural protein)
% of the protein (AUC) in the form with n 4.7 (AbrB K94I (B. subtilis) [7]): 65.6%
% of the protein (AUC) in the form with n 13.6 (AbrB K94I (B. subtilis) [7]): 34.4%
% of the protein in larger polymeric forms (AbrB K94I (B. subtilis) [7]): < 30%
% of the protein (AUC) in the form with n 4.1 (AbrB K94I (B. subtilis) [8]): > 95%
stoichiometry N (AbrB K94I (B. subtilis) [8]): 4.1

AbrB N88A (natural protein)
% of the protein (AUC) in the form with n 4.5 (AbrB N88A (B. subtilis)): 91%
% of the protein (AUC) in the form with n 8.1 (AbrB N88A (B. subtilis)): 9%

AbrB N88D (natural protein)
% of the protein (AUC) in the form with n 4.1 (AbrB N88D (B. subtilis)): 93%
% of the protein (AUC) in the form with n 8.3 (AbrB N88D (B. subtilis)): 8%

AbrB Q55A (natural protein)
% of the protein (AUC) in the form with n 3.9 (AbrB Q55A (B. subtilis)): 92%
% of the protein (AUC) in the form with n 8.1 (AbrB Q55A (B. subtilis)): 8%

AbrB Q55E (natural protein)
% of the protein (AUC) in the form with n 4.3 (AbrB Q55E (B. subtilis) [9]): 49%
% of the protein (AUC) in the form with n 12.3 (AbrB Q55E (B. subtilis) [9]): 51%
% of the protein (AUC) in the form with n 3.8 (AbrB Q55E (B. subtilis) [10]): > 95%
stoichiometry N (AbrB Q55E (B. subtilis) [10]): 3.8

AbrB Q81A (natural protein)
% of the protein (AUC) in the form with n 4.4 (AbrB Q81A (B. subtilis)): 94%
% of the protein (AUC) in the form with n 8.5 (AbrB Q81A (B. subtilis)): 6%

AbrB Q87A (natural protein)
% of the protein (AUC) in the form with n 4.5 (AbrB Q87A (B. subtilis)): 93%
% of the protein (AUC) in the form with n 8.1 (AbrB Q87A (B. subtilis)): 7%

AbrB Q89A (natural protein)
% of the protein (AUC) in the form with n 4.8 (AbrB Q89A (B. subtilis)): 93%
% of the protein (AUC) in the form with n 8.1 (AbrB Q89A (B. subtilis)): 7%

AbrBQ81E (natural protein)
% of the protein (AUC) in the form with n 3.9 (AbrBQ81E (B. subtilis) [11]): 78%
% of the protein (AUC) in the form with n 8.1 (AbrBQ81E (B. subtilis) [11]): 22%
% of the protein (AUC) in the form with n 4.1 (AbrBQ81E (B. subtilis) [12]): > 95%
stoichiometry N (AbrBQ81E (B. subtilis) [12]): 4.1

AbrBQ81K, identical with the AbrB of B. amyloliquefaciens FZB45 (natural protein)
% of the protein (AUC) in the form with n 4.0 [13]: > 95%
stoichiometry N [13]: 4

AbrBR15A (natural protein)
% of the protein (AUC) in the form with n 4.1 (AbrBR15A (B. subtilis) [14]): 57.5%
% of the protein (AUC) in the form with n 8.0 (AbrBR15A (B. subtilis) [14]): 42.5%
% of the protein (AUC) in the form with n 40.4 (AbrBR15A (B. subtilis) [15]): 10%
% of the protein (AUC) in the forms with 12< n >1 (AbrBR15A (B. subtilis) [15]): 90%

wild-type AbrB of B. subtilis 168 (His6-AbrB) (natural protein)
% of the protein (AUC) in the form with n 4.1 [16]: 87%
% of the protein (AUC) in the form with n 8.2 [16]: 13%
% of the protein (AUC) in the form with n 4.8 [17]: > 95%
stoichiometry N [17]: 4.8
